The values below come from patent US20260098858A1 (NAVROGEN, published 2026).

B1: soluble human ICAM-1/CD54 (receptor)
chain: QTSVSPSKVILPRGGSVLVTCSTSCDQPKLLGIETPLPKKELLLPGNNRKVYELSNVQEDSQPMCYSNCPDGQSTAKTFLTVYWTPERVELAPLPSWQPVGKNLTLRCQVEGGAPRANLTVVLLRGEKELKREPAVGEPAEVTTTVLVRRDHHGANFSCRTELDLRPQGLELFENTSAPYQLQTFVLPATPPQLVSPRVLEVDTQGTVVCSLDGLFPVSEAQVHLALGDQRLNPTVTYGNDSFSAKASVSVTAEDEGTQRLTCAVILGNQSQETLQTVTIYSFPAPNVILTKPEVSEGTEVTVKCEAHPRAKVTLNGVPAQPLGPRAQLLLKATPEDNGRSFSCSATLEVAGQLIHKNQTRELRVLYGPRLDERDCPGNWTWPENSQQTPMCQAWGNPLPELKCLKDGTFPLPIGESVTVTRDLEGTYLCRARSTQGEVTRKVTVNVLSPRYE
notes: also called sICAM-1; SICAM-1

One experiment concerns the target T1, human serum albumin (human, UniProt P02768 25-609).
T1 construct: also called HSA
The experiment is described as follows: ELISA: immobilized control protein, biotinylated sICAM-1 probe (FIG. 1B). In general terms: In an ELISA, binding on a coated surface is turned into a signal by an enzyme label.

Experiment [1] addresses B1. The experiment is described as follows: ELISA: immobilized monomeric CH2 domain, biotinylated sICAM-1 probe (FIG. 4B).

B1: the binding result in the experiment with human serum albumin is “no binding (tested: 5 µg/mL biotinylated sICAM-1)”.

B2: secreted recombinant monomeric heavy chain CH2 domain (other, human, UniProt P01857 114-223, looked up)
chain: APELLGGPSVFLFPPKPKDTLMISRTPEVTCVVVDVSHEDPEVKFNWYVDGVEVHNAKTKPREEQYNSTYRVVSVLTVLHQDWLNGKEYKCKVSNKALPAPIEKTISKAK
notes: domain: CH2
Turning to B2, in experiment [1], the binding result is “no binding (tested: 0.5 µg/mL biotinylated sICAM-1)”.
